In patent publication EP2119770B1, “Production of alpha-oxyfunctionalized carbonyl compounds” (priority 2008, dated 2009):

How the values were obtained:
CCC(=O)C(C)=O = test: Enzyme kinetics (Lineweaver-Burk plots), Gox0644; format: biochemical, Gluconobacter oxydans; settings: other: Gox0644; substrate 0.025 to 10 mM
Method: (§1) Determination of pH and temperature optima and enzyme kinetics: The optimum pH for enzyme activities was determined by a modified method of Salusjärvi, T. et al., Appl. Microbiol. Biotechnol. 65:306-314 (2004) using the following buffer system (50 mM final concentration each): sodium acetate pH 4.5 - 6.5, potassium phosphate pH 6.5 - 8.0, Tris-HCl pH 8.0 - 10. Temperature optima for the biocatalysts were determined under standard reaction conditions at temperatures ranging from 20 - 80 °C. The Michaelis constant (Km) for the proteins was determined from purified enzyme by Lineweaver-Burk plots. Assays were performed at optimum pH for each enzyme and at 30 °C using the top substrate and a targeted substrate. The Km for each substrate was calculated using concentrations of 0.0025 to 10 mM, and the Km NAD(P)H and NAD(P) was calculated using concentrations of 0.01 to 0.5 mM
(§2) The Michaelis constants were determined from purified enzyme by Lineweaver-Burk plots. The Km and Vmax values for the substrates were calculated using concentrations of 0.025 to 10 mM, The optimal pH values and temperatures for enzyme activities are also shown in Tab. 11. Tab. 11: Summary of kinetic parameters

O=CC(=O)c1ccccc1 = test: Enzyme kinetics (Lineweaver-Burk plots), Gox0644; format: biochemical, Gluconobacter oxydans; settings: other: Gox0644; substrate 0.025 to 10 mM
Method: as §1, §2

C=CC(C)=O = test: Enzyme kinetics (Lineweaver-Burk plots), Gox2107; format: biochemical, Gluconobacter oxydans; settings: other: Gox2107; substrate 0.025 to 10 mM
Method: as §1, §2

O=C1C=CC(=O)c2ccccc21 = test: Enzyme kinetics (Lineweaver-Burk plots), Gox2107; format: biochemical, Gluconobacter oxydans; settings: other: Gox2107; substrate 0.025 to 10 mM
Method: as §1, §2

[1] = substrate: C=CC(C)=O; test: purified protein, by the assay type; settings: other: Gox0502; substrate 0.025 to 10 mM
[2] = substrate: CC=O; test: Enzyme kinetics (Lineweaver-Burk plots), aldehyde dehydrogenase Gox1122; format: biochemical, Gluconobacter oxydans
Method: Determination of pH and temperature optima and enzyme kinetics: The optimum pH for enzyme activities was determined by a modified method of Salusjärvi, T. et al., Appl. […] Temperature optima for the biocatalysts were determined under standard reaction conditions at temperatures ranging from 20 - 80 °C. The Michaelis constant (Km) for the proteins was determined from purified enzyme by Lineweaver-Burk plots. Assays were performed at optimum pH for each enzyme and at 30 °C using the top substrate and a targeted substrate.

[3] = substrate: NC(=O)c1ccc[n+]([C@@H]2O[C@H](COP(=O)(O)OP(=O)(O)OC[C@H]3O[C@@H](n4cnc5c(N)ncnc54)[C@H](OP(=O)(O)O)[C@@H]3O)[C@@H](O)[C@H]2O)c1; test: purified protein, by the assay type; settings: other: Gox1122; for the cofactor NADP
[4] = substrate: C=CC(C)=O; test: Enzyme kinetics (Lineweaver-Burk plots), Gox2684; format: biochemical, Gluconobacter oxydans; settings: other: Gox2684; substrate 0.025 to 10 mM
Method: as §1, §2

[5] = substrate: CC(=O)C=O; test: Enzyme kinetics (Lineweaver-Burk plots), Gox1615; format: biochemical, Gluconobacter oxydans; settings: other: Gox1615; substrate 0.025 to 10 mM
Method: as §1, §2

[6] = substrate: CCCC(=O)C(C)=O; test: Enzyme kinetics (Lineweaver-Burk plots), Gox1615; format: biochemical, Gluconobacter oxydans; settings: other: Gox1615; substrate 0.025 to 10 mM
Method: as §1, §2

[7] = other: Gox1122, aldehyde concentrations from 0.0025 to 10 mM
[8] = other: Tab. 11, Gox1122, substrate 0.025 to 10 mM

For Gox0644 (Gluconobacter oxydans 621H), the Km (CCC(=O)C(C)=O) was 5600 µM, the Vmax (CCC(=O)C(C)=O) was 79.0 µmol/min/mg and the Km (O=CC(=O)c1ccccc1) was 4700 µM. For the same molecule, the Vmax (O=CC(=O)c1ccccc1) was 93.0 µmol/min/mg.

Gox2107 (Gluconobacter oxydans 621H) was tested, and the Km (C=CC(C)=O) was 3800 µM, the Vmax (C=CC(C)=O) was 119 µmol/min/mg and the Km (O=C1C=CC(=O)c2ccccc21) was 10 µM. It also gave a Vmax (O=C1C=CC(=O)c2ccccc21) of 217 U/mg protein.

B1: Gox0502 (Gluconobacter oxydans 621H) (protein)
chain: MPTLFDPIDFGPIHAKNRIVMSPLTRGRADKEAVPTPIMAEYYAQRASAGLIITEATGISREGLGWPFAPGIWSDAQVEAWKPIVAGVHAKGGKIVCQLWHMGRMVHSSVTGTQPVSSSATTAPGEVHTYEGKKPFEQARAIDAADISRILNDYENAARNAIRAGFDGVQIHAANGYLIDEFLRNGTNHRTDEYGGVPENRIRFLKEVTERVIAAIGADRTGVRLSPNGDTQGCIDSAPETVFVPAAKLLQDLGVAWLELREPGPNGTFGKTDQPKLSPQIRKVFLRPLVLNQDYTFEAAQTALAEGKADAIAFGRKFISNPDLPERFARGIALQPDDMKTWYSQGPEGYTDYPSATSGPN
B1 showed a Km [1] of 100 µM and a Vmax [1] of 21.0 µmol/min/mg.

B2: Gox1122 (Gluconobacter oxydans 621H) (protein)
chain: MAYATINPYTGETLKTFPEATDQEVQTALTEAYDAFKSWRHTPFAERAKIMTAAANILRRDIDKYSKLLTLEMGKIYAEAKAETILSAEIFEYYAKNAEELLKAEKLPVADPKEGEAVLIHQPQGIVFAIEPWNFPFYQIARIIAPQLSAGNTVILKHASNVPQCAAAFDDLMKEAGLPKGGFRNLYAARHHTETILKDPRVCGVALTGSEGAGAVVAGIAAQALKKSTMELGGSDAFLVLDDADLEKTAKWAAFGRHWNAGQVCVSAKRLIVADAVYDRFVELYKAEVAKLIPGDPMDPKTTLAPLSSQKAADDLKAQVEEAKKHGAVVEAIGPSVPEKGAFFQPLLMTNLHENNEARLWEFFGPVTQLYRAKDDADAIRIANDSPFGLGGSVFTKDTQRGVKVAEQIYTGMVYINHPTMVKADLPFGGVARSGYGRELIGLGIKEFVNHKLIDVVDIDAPF
B2 gave a Km [2, 7] of 255 µM, a Vmax [2, 7] of 196 U/mg protein and a Km [2, 8] of 200 µM. The Vmax [2, 8] was 196 µmol/min/mg and the Km [3] was 73 µM.

B3: Gox2684 (Gluconobacter oxydans 621H) (protein)
chain: MTSLFEPIELGSIYAKNRILMAPLTRGRGTRDHVPTPIMAEYYAQRAGAGLIISEATGISREGLGWPYAPGLWSQEQVEAWKPITAAVHAKGGKIVAQLWHMGRMVHSSVTGQQPVSCSATKAPEALHTYDGKQAPEVARPLTKEDIARILNDYENAARNALQAGFDGVQIHAANGYLIDEFLRDGTNHRSDEYGGSPENRIRFLREVTERVIATIGAHKTSVRLSPNGDTVGCIDSHPEQVFVPAAKLLNDLDIAFLELREPGPNGTFGKTDQPKLHGPIREVFRKPLVLNQDYTREEAIETVATGVADAISFGRPFLANPDLVRRLEDNLPQNKDDIRTWYSQGAEGYTDYPLAR
B3 showed a Km [4] of 300 µM and a Vmax [4] of 11.3 µmol/min/mg.

B4: Gox1615 (Gluconobacter oxydans 621H) (protein)
chain: MASDTIRIPGIDTPLSRVALGTWAIGGWMWGGPDDDNGVRTIHAALDEGINLIDTAPVYGFGHSEEIVGRALAEKPNKAHVATKLGLHWVGEDEKNMKVFRDSRPARIRKEVEDSLRRLRVETIDLEQIHWPDDKTPIDESARELQKLHQDGKIRALGVSNFSPEQMDIFREVAPLATIQPPLNLFERTIEKDILPYAEKHNAVVLAYGALCRGLLTGKMNRDTTFPKDDLRSNDPKFQKPNFEKYLAAMDEFEKLAEKRGKSVMAFAVRWVLDQGPVIALWGARKPGQVSGVKDVFGWSLTDEEKKAVDDILARHVPNPIDPTFMAPPARD
B4 gave a Km [5] of 3800 µM, a Vmax [5] of 22.0 µmol/min/mg and a Km [6] of 3200 µM. The Vmax [6] was 6.0 µmol/min/mg.
